The source of these data is publication PMC6123696, “Multitasking of Hsp70 chaperone in the biogenesis of bacterial functional amyloids” (Communications Biology, 2018).

Test [1] addresses T1, N-terminal His-tagged DnaK (His-DnaK) (E. coli, UniProt P0A6Y8 1-638).
T1 construct: also called DnaKWT; bacterial Hsp70; source: E. coli BL21 (DE3), from pDnaKWT (ASKA clone), purified (TALON, Mono Q, Superdex G-200); not shown: His tag, N-terminal, kept
Description: peptide or protein array; CelluSpot array of cellulose-bound peptides on glass slides (8-residue peptides overlapping by seven); 50 nM His-DnaK in DB buffer (25 mM Tris-HCl pH 7.5, 150 mM NaCl, 10 mM KCl, 0.05% Tween 20, 5% sucrose) overnight at 4 °C; detected with HRP-conjugated anti-His antibody. The note with it: both partners purified.

The target in test [2] is T1, N-terminal His-tagged DnaK (His-DnaK). Kind of test: SPR; BIAcore T200; CsgA peptides immobilised on a CM7 chip by EDC/NHS coupling; DnaK 50–1000 nM as analyte, single-cycle kinetics; 25 °C; HBS-DM buffer (10 mM HEPES pH 7.4, 150 mM NaCl, 5 mM MgCl2, 1% dimethylsulfoxide); 30 μL min^−1; fit with a 1:1 binding mode. The note with it: both partners purified.

T1 sequence (P0A6Y8 whole entry): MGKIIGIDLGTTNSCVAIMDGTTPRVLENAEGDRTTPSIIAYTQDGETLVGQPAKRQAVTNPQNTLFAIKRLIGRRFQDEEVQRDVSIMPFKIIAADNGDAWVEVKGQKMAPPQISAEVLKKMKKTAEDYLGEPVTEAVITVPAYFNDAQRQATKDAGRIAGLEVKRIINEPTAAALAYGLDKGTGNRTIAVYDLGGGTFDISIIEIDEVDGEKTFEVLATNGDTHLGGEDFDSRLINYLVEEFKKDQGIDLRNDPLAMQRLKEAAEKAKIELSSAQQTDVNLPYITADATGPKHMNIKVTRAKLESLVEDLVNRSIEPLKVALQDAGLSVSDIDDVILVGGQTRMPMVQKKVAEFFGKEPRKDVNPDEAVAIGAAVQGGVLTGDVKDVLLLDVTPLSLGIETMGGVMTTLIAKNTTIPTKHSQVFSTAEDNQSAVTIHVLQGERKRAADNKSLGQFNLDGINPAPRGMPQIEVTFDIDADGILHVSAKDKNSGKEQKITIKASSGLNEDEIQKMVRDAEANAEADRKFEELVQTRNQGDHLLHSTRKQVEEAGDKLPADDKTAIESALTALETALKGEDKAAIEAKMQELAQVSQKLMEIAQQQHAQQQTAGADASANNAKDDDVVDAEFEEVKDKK

B1: N-terminal 8-amino acid peptide of CsgA (NH2-KLLKVAAI-COOH) (peptide)
peptide: H-KLLKVAAI-OH
notes: source: synthetic peptide, CelluSpot peptide array (Intavis Bioanalytical Instruments)
For the molecule B1, in test [1], the binding result is “binds”.

B2: CsgA_(133–151) (R5, the most amyloidogenic of the five repeats) (peptide)
peptide: SSVNVTQVGFGNNATAHQY
notes: source: synthetic peptide (Eurofins Genomics, HPLC >95%)
As to B2, in test [2], the equilibrium dissociation constant (Kd) turned out to be 20.7 nM, the koff was 9.77e-05 s⁻¹ and the on-rate constant (kon) turned out to be 4720 M⁻¹ s⁻¹.

B3: N-terminal 8-amino acid peptide of CsgB (NH2-KNKLLFMM-COOH) (peptide)
peptide: H-KNKLLFMM-OH
notes: as for B1
For the molecule B3, the binding result in test [1] is recorded as “binds”.

B4: CsgA_(2–20) (signal peptide of CsgA without the N-terminal Met) (peptide)
peptide: KLLKVAAIAAIVFSGSALA
notes: also called CsgA signal peptide; source: synthetic peptide (Eurofins Genomics, HPLC >95%)
Regarding B4, in test [2], the affinity, expressed as Kd, was 2.19 nM; the koff was 0.000256 s⁻¹; the kon is 117000 M⁻¹ s⁻¹.
